Assay results published in PMC7761212 (2020).

B1: AHb1 (protein)
chain: MESEGKIVFTEEQEALVVKSWSVMKKNSAELGLKLFIKIFEIAPTTKKMFSFLRDSPIPAEQNPKLKPHAMSVFVMCCESAVQLRKTGKVTVRETTLKRLGASHSKYGVVDEHFEVAKYALLETIKEAVPEMWSPEMKVAWGQAYDHLVAAIKAEMNLSN
modifications: ferrous-oxy heme (O2-bound)
B2: AHb1 (protein)
chain: MESEGKIVFTEEQEALVVKSWSVMKKNSAELGLKLFIKIFEIAPTTKKMFSFLRDSPIPAEQNPKLKPHAMSVFVMCCESAVQLRKTGKVTVRETTLKRLGASHSKYGVVDEHFEVAKYALLETIKEAVPEMWSPEMKVAWGQAYDHLVAAIKAEMNLSN
modifications: ferric heme

Biological target: AHb1 (Arabidopsis thaliana, UniProt O24520)
Experiment: size exclusion chromatography

| Binder | Kd [µM] |
| --- | --- |
| B1 | 1.2 |
| B2 | 11 |
